The values below come from PMC7660477.

Common to all, as to assay: microtubule co-sedimentation (taxol-mediated polymerisation, sucrose gradient centrifugation) with western blot quantification
One assay concerns the target EZRIN (UniProt P26040). As to conditions: E18.5 forebrain, n = 3, mean ± s.e.m., parent: est. 0.10, read off a plot.
The next assay addresses VAPA (UniProt Q9WV55). The conditions noted are these: E18.5 forebrain, n = 3, mean ± s.e.m., parent: est. 0.30, read off a plot.
Assay [1] deals with dynein intermediate chain (DYNC1I1/2) (UniProt O88485). As to conditions: E18.5 forebrain; n = 3; mean ± s.e.m.; P<0.01; parent: est. 0.55; read off a plot.
The next assay concerns the target KIF5C (UniProt P28738). The conditions noted are these: E18.5 forebrain, n = 3, mean ± s.e.m., parent: est. 0.61, read off a plot.
The target of another assay is VAPB (UniProt Q9QY76). The conditions noted are these: E18.5 forebrain, n = 3, mean ± s.e.m., parent: est. 0.27, read off a plot.
Another assay deals with REEP1 (UniProt Q8BGH4). As to conditions: E18.5 forebrain, n = 3, mean ± s.e.m., parent: est. 0.28, read off a plot.

Regarding “microtubules from the forebrain of E18.5 R402H/R402H littermate controls (no Cre; wild-type Tuba1a expressed) (from UniProt P68369;P99024)”, the response (ratio MT pellet/lysate) with EZRIN was found to be 0.12; with VAPA, 0.34; in assay [1] it was 0.29; with KIF5C, 0.6; with VAPB, 0.14; with REEP1 it was 0.05.
